Experimental data as given in PMC4728125, “Molecular basis for allosteric specificity regulation in class Ia ribonucleotide reductase from Escherichia coli” (eLife, 2016).

B1: Escherichia coli class Ia ribonucleotide reductase catalytic subunit α2 (enzyme, E. coli, UniProt P00452 1-761, looked up)
chain: MNQNLLVTKRDGSTERINLDKIHRVLDWAAEGLHNVSISQVELRSHIQFYDGIKTSDIHETIIKAAADLISRDAPDYQYLAARLAIFHLRKKAYGQFEPPALYDHVVKMVEMGKYDNHLLEDYTEEEFKQMDTFIDHDRDMTFSYAAVKQLEGKYLVQNRVTGEIYESAQFLYILVAACLFSNYPRETRLQYVKRFYDAVSTFKISLPTPIMSGVRTPTRQFSSCVLIECGDSLDSINATSSAIVKYVSQRAGIGINAGRIRALGSPIRGGEAFHTGCIPFYKHFQTAVKSCSQGGVRGGAATLFYPMWHLEVESLLVLKNNRGVEGNRVRHMDYGVQINKLMYTRLLKGEDITLFSPSDVPGLYDAFFADQEEFERLYTKYEKDDSIRKQRVKAVELFSLMMQERASTGRIYIQNVDHCNTHSPFDPAIAPVRQSNLCLEIALPTKPLNDVNDENGEIALCTLSAFNLGAINNLDELEELAILAVRALDALLDYQDYPIPAAKRGAMGRRTLGIGVINFAYYLAKHGKRYSDGSANNLTHKTFEAIQYYLLKASNELAKEQGACPWFNETTYAKGILPIDTYKKDLDTIANEPLHYDWEALRESIKTHGLRNSTLSALMPSETSSQISNATNGIEPPRGYVSIKASKDGILRQVVPDYEHLHDAYELLWEMPGNDGYLQLVGIMQKFIDQSISANTNYDPSRFPSGKVPMQQLLKDLLTAYKFGVKTLYYQNTRDGAEDAQDDLVPSIQDDGCESGACKI
notes: Ribonucleotide reductase class Ia α subunit (NrdA, protein R1), E. coli; residues about 4-737 modelled; 172-kDa homodimer; no tag is named for this preparation; The His6-tagged α2 was used only in the activity assays; also called α subunit; RNR α; source: prepared as described (Salowe et al., 1987; Salowe and Stubbe, 1986), purified

Assays:
[1] = target: ribonucleotide reductase β2 (Escherichia coli) (UniProt P69924); conditions: cited from earlier work
[2] = target: the molecule itself; experiment: crystal structure; α4β4 crystal form; 25 μM α2 and 50 μM met-β2 in 50 mM HEPES, 15 mM MgCl2, 1 mM EDTA, pH 7.6, with 10 mM dATP and 5 mM DTT; hanging drop, ~25°C; crystals soaked with CDP/dATP, UDP/dATP, ADP/dGTP or GDP/TTP; four structures at 2.97-3.40 Å

ribonucleotide reductase β2 (Escherichia coli), sequence (P69924 2-376): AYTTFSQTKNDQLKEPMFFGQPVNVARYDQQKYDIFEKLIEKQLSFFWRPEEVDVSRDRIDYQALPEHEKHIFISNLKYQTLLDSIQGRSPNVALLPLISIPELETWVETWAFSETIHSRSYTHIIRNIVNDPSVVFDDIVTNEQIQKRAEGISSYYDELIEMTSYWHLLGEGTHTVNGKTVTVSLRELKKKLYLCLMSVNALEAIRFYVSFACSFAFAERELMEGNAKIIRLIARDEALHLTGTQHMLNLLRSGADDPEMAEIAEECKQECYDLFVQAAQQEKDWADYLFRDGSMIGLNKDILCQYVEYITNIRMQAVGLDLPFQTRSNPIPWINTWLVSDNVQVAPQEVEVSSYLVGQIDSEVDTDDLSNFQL

| Molecule | Kd [1] | binding result [2] |
| --- | --- | --- |
| ribonucleotide reductase α2 (from UniProt P00452) | 400 nM |  |
| B1 |  | binds |
